Measured values: paper PMC13397619

B1: NLV2 TCR alpha chain (CDR3α only) (parent)
chain: AGPMKTSYDKVI
B2: NLV2 TCR alpha chain (CDR3α only) (parent)
chain: AGPMKTSYDKVI
partner: NLVGMVATV

Columns and labels:
[1] = variants of: B1; experiment: T-Switch: Jurkat TCRβ−/− cells expressing a CDR3 saturation-mutagenesis library, stained with two peptide-HLA-A*02:01 tetramers (original and novel peptide) plus anti-CD3, FACS-sorted into four gates, gDNA sequenced; settings: tetramers 1 µg/mL, 30 min on ice, SP, DP and SW gates expanded about 10 days between rounds ('two to three rounds of selection' in the Methods), unresolved parent, parent is a CDR3 fragment, scale: fold enrichment, numbering: sequential-on-construct, sequence starts at 1
[2] = variants of: B2; experiment: as above; settings: with HLA-A*02:01 with peptide … (NLV 2-2, the original bait), tetramers 1 µg/mL, 30 min on ice, DP and SW gates expanded about 10 days between rounds ('two to three rounds of selection' in the Methods), gate SP: higher = more of the variant in the gate that binds the original peptide and not the novel one = retained original binding. Fold enrichment of the CDR3 variant in one FACS gate of a two-tetra, unresolved parent, parent is a CDR3 fragment, scale: fold enrichment, numbering: sequential-on-construct, sequence …
[3] = with both tetramers (double-negative gate, binds neither): HLA-A*02:01 with … and with …, gate DN: OPPOSITE: higher = more of the variant in the gate that binds neither peptide = LESS binding (or no expression; inferred). Fold enrichment of the CDR3 variant in one FACS gate of a two-tetram
[4] = with both tetramers (double-positive gate): HLA-A*02:01 with … and with …, gate DP: higher = more of the variant in the gate that binds both peptides. Fold enrichment of the CDR3 variant in one FACS gate of a two-tetramer stain. SP/DP/SW gates were expanded and re-sorted bef

| Variant | enrichment [1, 3] | enrichment [1, 4] | enrichment [2] |
| --- | --- | --- | --- |
| […] (CDR3 as printed); D9H derived by comparing it with the table's wild-type CDR3 AGPMKTSYDKVI | 1.29 | 0 |  |
| […] (CDR3 as printed); K10S derived by comparing it with the table's wild-type CDR3 AGPMKTSYDKVI | 1.01 | 0 |  |
| […] (CDR3 as printed); P3Q derived by comparing it with the table's wild-type CDR3 AGPMKTSYDKVI | 1.16 | 0 |  |
| […] (CDR3 as printed); T6E derived by comparing it with the table's wild-type CDR3 AGPMKTSYDKVI | 1.78 | 0 |  |
| […] (CDR3 as printed); D9Q derived by comparing it with the table's wild-type CDR3 AGPMKTSYDKVI | 0.673 | 0 |  |
| […] (CDR3 as printed); I12Q derived by comparing it with the table's wild-type CDR3 AGPMKTSYDKVI | 1.17 | 0 |  |
| […] (CDR3 as printed); K10E derived by comparing it with the table's wild-type CDR3 AGPMKTSYDKVI | 1.27 | 0 |  |
| […] (CDR3 as printed); Y8S derived by comparing it with the table's wild-type CDR3 AGPMKTSYDKVI | 0.528 | 0 |  |
| […] (CDR3 as printed); D9E derived by comparing it with the table's wild-type CDR3 AGPMKTSYDKVI | 1.03 | 0 |  |
| […] (CDR3 as printed); P3M derived by comparing it with the table's wild-type CDR3 AGPMKTSYDKVI | 1.17 | 0 |  |
| […] (CDR3 as printed); M4D derived by comparing it with the table's wild-type CDR3 AGPMKTSYDKVI | 0.825 | 0 |  |
| […] (CDR3 as printed); M4H derived by comparing it with the table's wild-type CDR3 AGPMKTSYDKVI | 0.903 | 0 |  |
| […] (CDR3 as printed); I12A derived by comparing it with the table's wild-type CDR3 AGPMKTSYDKVI | 0.854 | 0 |  |
| […] (CDR3 as printed); P3I derived by comparing it with the table's wild-type CDR3 AGPMKTSYDKVI | 1.09 | 0 |  |
| […] (CDR3 as printed); D9N derived by comparing it with the table's wild-type CDR3 AGPMKTSYDKVI | 1.01 | 0 |  |
| […] (CDR3 as printed); S7L derived by comparing it with the table's wild-type CDR3 AGPMKTSYDKVI | 1.06 | 0 |  |
| […] (CDR3 as printed); M4W derived by comparing it with the table's wild-type CDR3 AGPMKTSYDKVI | 0.861 | 0 |  |
| […] (CDR3 as printed); A1W derived by comparing it with the table's wild-type CDR3 AGPMKTSYDKVI | 0.77 | 0 |  |
| […] (CDR3 as printed); K10T derived by comparing it with the table's wild-type CDR3 AGPMKTSYDKVI | 1.24 | 0 |  |
| […] (CDR3 as printed); A1I derived by comparing it with the table's wild-type CDR3 AGPMKTSYDKVI | 0.798 | 0 |  |
| […] (CDR3 as printed); I12K derived by comparing it with the table's wild-type CDR3 AGPMKTSYDKVI | 0.703 | 0 |  |
| […] (CDR3 as printed); M4G derived by comparing it with the table's wild-type CDR3 AGPMKTSYDKVI | 0.783 | 0 |  |

| Variant | enrichment [1, 3] | enrichment [1, 4] | enrichment [2] |
| --- | --- | --- | --- |
| […] (CDR3 as printed); G2M derived by comparing it with the table's wild-type CDR3 AGPMKTSYDKVI | 1.1 | 0 |  |
| […] (CDR3 as printed); S7H derived by comparing it with the table's wild-type CDR3 AGPMKTSYDKVI | 0.722 | 0 |  |
| […] (CDR3 as printed); A1Y derived by comparing it with the table's wild-type CDR3 AGPMKTSYDKVI | 0.935 | 0 |  |
| […] (CDR3 as printed); P3C derived by comparing it with the table's wild-type CDR3 AGPMKTSYDKVI | 0.884 | 0 |  |
| […] (CDR3 as printed); M4K derived by comparing it with the table's wild-type CDR3 AGPMKTSYDKVI | 0.454 | 0 |  |
| […] (CDR3 as printed); S7V derived by comparing it with the table's wild-type CDR3 AGPMKTSYDKVI | 0.928 | 0 |  |
| […] (CDR3 as printed); K10Y derived by comparing it with the table's wild-type CDR3 AGPMKTSYDKVI | 0.393 | 0 |  |
| […] (CDR3 as printed); K5N derived by comparing it with the table's wild-type CDR3 AGPMKTSYDKVI | 1.12 | 0 |  |
| […] (CDR3 as printed); I12C derived by comparing it with the table's wild-type CDR3 AGPMKTSYDKVI | 1.05 | 0 |  |
| […] (CDR3 as printed); T6C derived by comparing it with the table's wild-type CDR3 AGPMKTSYDKVI | 0.924 | 0 |  |
| […] (CDR3 as printed); V11F derived by comparing it with the table's wild-type CDR3 AGPMKTSYDKVI | 1.29 | 0 |  |
| […] (CDR3 as printed); K5P derived by comparing it with the table's wild-type CDR3 AGPMKTSYDKVI | 0.356 | 0 |  |
| […] (CDR3 as printed); A1M derived by comparing it with the table's wild-type CDR3 AGPMKTSYDKVI | 0.803 | 0 |  |
| […] (CDR3 as printed); P3W derived by comparing it with the table's wild-type CDR3 AGPMKTSYDKVI | 0.887 | 0 |  |
| […] (CDR3 as printed); I12D derived by comparing it with the table's wild-type CDR3 AGPMKTSYDKVI | 0.942 | 0 |  |
| […] (CDR3 as printed); Y8H derived by comparing it with the table's wild-type CDR3 AGPMKTSYDKVI | 0.969 | 0 |  |
| […] (CDR3 as printed); K5G derived by comparing it with the table's wild-type CDR3 AGPMKTSYDKVI | 0.602 | 0 |  |
| […] (CDR3 as printed); D9L derived by comparing it with the table's wild-type CDR3 AGPMKTSYDKVI | 0.93 | 0 |  |
| […] (CDR3 as printed); G2K derived by comparing it with the table's wild-type CDR3 AGPMKTSYDKVI | 0.928 | 0 |  |
| […] (CDR3 as printed); D9S derived by comparing it with the table's wild-type CDR3 AGPMKTSYDKVI | 1.04 | 0 |  |
| […] (CDR3 as printed); P3R derived by comparing it with the table's wild-type CDR3 AGPMKTSYDKVI | 1.32 | 0 |  |
| […] (CDR3 as printed); P3F derived by comparing it with the table's wild-type CDR3 AGPMKTSYDKVI | 1.32 | 0 |  |

| Variant | enrichment [1, 3] | enrichment [1, 4] | enrichment [2] |
| --- | --- | --- | --- |
| […] (CDR3 as printed); D9W derived by comparing it with the table's wild-type CDR3 AGPMKTSYDKVI | 1.34 | 0 |  |
| […] (CDR3 as printed); Y8A derived by comparing it with the table's wild-type CDR3 AGPMKTSYDKVI | 0.451 | 0 |  |
| […] (CDR3 as printed); G2V derived by comparing it with the table's wild-type CDR3 AGPMKTSYDKVI | 0.88 | 0 |  |
| […] (CDR3 as printed); T6V derived by comparing it with the table's wild-type CDR3 AGPMKTSYDKVI | 0.56 | 0 |  |
| […] (CDR3 as printed); K5Q derived by comparing it with the table's wild-type CDR3 AGPMKTSYDKVI | 0.51 | 0 |  |
| […] (CDR3 as printed); A1N derived by comparing it with the table's wild-type CDR3 AGPMKTSYDKVI | 0.847 | 0 |  |
| […] (CDR3 as printed); G2A derived by comparing it with the table's wild-type CDR3 AGPMKTSYDKVI | 0.977 | 0 |  |
| […] (CDR3 as printed); Y8L derived by comparing it with the table's wild-type CDR3 AGPMKTSYDKVI |  |  | 0 |
| […] (CDR3 as printed); V11L derived by comparing it with the table's wild-type CDR3 AGPMKTSYDKVI |  |  | 0 |
| […] (CDR3 as printed); S7I derived by comparing it with the table's wild-type CDR3 AGPMKTSYDKVI |  |  | 0 |
| […] (CDR3 as printed); D9Y derived by comparing it with the table's wild-type CDR3 AGPMKTSYDKVI |  |  | 0 |
| […] (CDR3 as printed); Y8T derived by comparing it with the table's wild-type CDR3 AGPMKTSYDKVI |  |  | 0.942 |
| […] (CDR3 as printed); K10N derived by comparing it with the table's wild-type CDR3 AGPMKTSYDKVI |  |  | 0 |
| […] (CDR3 as printed); T6A derived by comparing it with the table's wild-type CDR3 AGPMKTSYDKVI |  |  | 0 |
| […] (CDR3 as printed); V11F derived by comparing it with the table's wild-type CDR3 AGPMKTSYDKVI |  |  | 0 |
| […] (CDR3 as printed); K5G derived by comparing it with the table's wild-type CDR3 AGPMKTSYDKVI |  |  | 12.9 |
| […] (CDR3 as printed); D9N derived by comparing it with the table's wild-type CDR3 AGPMKTSYDKVI |  |  | 0 |
| […] (CDR3 as printed); S7H derived by comparing it with the table's wild-type CDR3 AGPMKTSYDKVI |  |  | 0 |
| […] (CDR3 as printed); K10H derived by comparing it with the table's wild-type CDR3 AGPMKTSYDKVI |  |  | 0.422 |
| […] (CDR3 as printed); V11T derived by comparing it with the table's wild-type CDR3 AGPMKTSYDKVI |  |  | 0 |
